Results as given in patent US20230134571A1 (INTERNATIONAL AIDS VACCINE INITIATIVE, published 2023).

How the values were obtained:
Assay in all cases: cell-based or functional assay
[1] = biological target: HIV Env, isolate 1006_11_C3_1601 (HIV)
[2] = biological target: HIV Env, isolate QH0692.42 (HIV)
[3] = biological target: HIV Env, isolate SC05_8C11_2344 (HIV)
[4] = biological target: HIV Env, isolate SC422661.8 (HIV)
HIV Env, isolate TRO.11 = HIV Env, isolate TRO.11 (HIV)
HIV Env, isolate CNE20 = HIV Env, isolate CNE20 (HIV)
HIV Env, isolate CNE58 = HIV Env, isolate CNE58 (HIV)
[5] = biological target: HIV Env, isolate 1394C9G1(Rev-) (HIV)
[6] = biological target: HIV Env, isolate HIV-001428-2.42 (HIV)
[7] = biological target: HIV Env, isolate HIV-16845-2.22 (HIV)
[8] = biological target: HIV Env, isolate ZM135M.PL10a (HIV)
[9] = biological target: HIV Env, isolate ZM249M.PL1 (HIV)
[10] = biological target: HIV Env, isolate 6952.v1.c20 (HIV)
[11] = biological target: HIV Env, isolate 89-F1_2_25 (HIV)
[12] = biological target: HIV Env, isolate A07412M1.vrc12 (HIV)
[13] = biological target: HIV Env, isolate X1254_C3 (HIV)

B1: ePGDM9 (antibody, V domains shown)
VH: QAQLVQSGPEVRKPGTSVKVSCKNPGNTLTTYDLHWVRQVPGQGLQWMGWISHEGDKKVIVERFKAKVTIDWDRSTNTAYLQLSGLTSEDTAVYYCAKGSKHRLRDYALYDEDGALNWAVDVDYLANLEFWGQGTAVTVSS
VL: DIVLTQSPLSLSVTPGESASISCKSSQSLIHGDRNNYLAWYVQKPGRSPQLLIDLASERASGVPDRFSGSGSRKDFTLKISRVETEDVGTYYCMQGRESPWTFGQGTKVDIK
- IC80 (µg/ml) with constrains [1]: 2.35 µg/mL
- IC80 (µg/ml) with constrains [2]: > 100 µg/mL
- IC80 (µg/ml) with constrains [3]: 4.25 µg/mL
- IC80 (µg/ml) with constrains [4]: 5.33 µg/mL
- IC80 (µg/ml) with constrains (HIV Env, isolate TRO.11): 0.652 µg/mL
- IC80 (µg/ml) with constrains (HIV Env, isolate CNE20): 0.008 µg/mL
- IC80 (µg/ml) with constrains (HIV Env, isolate CNE58): 0.008 µg/mL
- IC80 (µg/ml) with constrains [5]: 0.005 µg/mL
- IC80 (µg/ml) with constrains [6]: 0.008 µg/mL
- IC80 (µg/ml) with constrains [7]: > 100 µg/mL
- IC80 (µg/ml) with constrains [8]: > 100 µg/mL
- IC80 (µg/ml) with constrains [9]: 0.008 µg/mL
- IC80 (µg/ml) with constrains [10]: 0.21 µg/mL
- IC80 (µg/ml) with constrains [11]: 0.004 µg/mL
- IC80 (µg/ml) with constrains [12]: 0.103 µg/mL
- IC80 (µg/ml) with constrains [13]: 0.71 µg/mL

B2: ePGDM5 (antibody, V domains shown)
VH: QAQLVQSGPEVRKPGTSVKVSCKNPGNTLTTYDLHWVRQVPGQGLQWMGWISHEGDKKVIVERFKAKVTIDWDRSTNTAYLQLSGLTSEDTAVYYCAKGSKHRLRDYALYDEDGALNWAVDVDYLANLEFWGQGTAVTVSS
VL: DFVLTQSPLSLSVTPGESASISCKSDHSLQHGDRNNYLAWYVQKPGRSPQLLIDLASERASGVPDRFSGSGSRKDFTLKIDRVEAEDVGTYYCMQGRESPWTFGQGTKVDIK
- IC80 (µg/ml) with constrains [1]: 1.89 µg/mL
- IC80 (µg/ml) with constrains [2]: > 100 µg/mL
- IC80 (µg/ml) with constrains [3]: 14.5 µg/mL
- IC80 (µg/ml) with constrains [4]: 5.33 µg/mL
- IC80 (µg/ml) with constrains (HIV Env, isolate TRO.11): 1.26 µg/mL
- IC80 (µg/ml) with constrains (HIV Env, isolate CNE20): 0.015 µg/mL
- IC80 (µg/ml) with constrains (HIV Env, isolate CNE58): 0.015 µg/mL
- IC80 (µg/ml) with constrains [5]: 0.009 µg/mL
- IC80 (µg/ml) with constrains [6]: 0.013 µg/mL
- IC80 (µg/ml) with constrains [7]: > 100 µg/mL
- IC80 (µg/ml) with constrains [8]: > 100 µg/mL
- IC80 (µg/ml) with constrains [9]: 0.138 µg/mL
- IC80 (µg/ml) with constrains [10]: 0.132 µg/mL
- IC80 (µg/ml) with constrains [11]: 0.006 µg/mL
- IC80 (µg/ml) with constrains [12]: 0.035 µg/mL
- IC80 (µg/ml) with constrains [13]: 0.869 µg/mL

B3: ePGDM13 (antibody, V domains shown)
VH: QAQLVQSGPEVRKPGTSVKVSCKNPGNTLTTYDLHWVRQVPGQGLQWMGWISHEGDKKVIVERFKAKVTIDWDRSTNTAYLQLSGLTSEDTAVYYCAKGSKHRLRDYALYDEDGALNWAVDVDYLANLEFWGQGTAVTVSS
VL: DIVLTQSPLSLSVTPGESASISCKSSHSLQHGDRNNYLAWYVQKPGRSPQLLLDLASERASGVPDRFSGSGSEKDFTLKISRVETEDVGTYYCMQGRESPWTFGQGTKVDIK
- IC80 (µg/ml) with constrains [1]: 3.3 µg/mL
- IC80 (µg/ml) with constrains [2]: > 100 µg/mL
- IC80 (µg/ml) with constrains [3]: 9.44 µg/mL
- IC80 (µg/ml) with constrains [4]: 6.26 µg/mL
- IC80 (µg/ml) with constrains (HIV Env, isolate TRO.11): 1.41 µg/mL
- IC80 (µg/ml) with constrains (HIV Env, isolate CNE20): 0.015 µg/mL
- IC80 (µg/ml) with constrains (HIV Env, isolate CNE58): 0.014 µg/mL
- IC80 (µg/ml) with constrains [5]: 0.011 µg/mL
- IC80 (µg/ml) with constrains [6]: 0.011 µg/mL
- IC80 (µg/ml) with constrains [7]: > 100 µg/mL
- IC80 (µg/ml) with constrains [8]: > 100 µg/mL
- IC80 (µg/ml) with constrains [9]: 0.056 µg/mL
- IC80 (µg/ml) with constrains [10]: 0.318 µg/mL
- IC80 (µg/ml) with constrains [11]: 0.006 µg/mL
- IC80 (µg/ml) with constrains [12]: 0.118 µg/mL
- IC80 (µg/ml) with constrains [13]: 2.07 µg/mL

B4: PGDM1400 (antibody, V domains shown)
VH: QVHLTQSGPEVRKPGTSVKVSCKAPGNTLKTYDLHWVRSVPGQGLQWMGWISHEGDKKVIVERFKAKVTIDWDRSTNTAYLQLSGLTSGDTAVYYCAKGSKHRLRDYALYDDDGALNWAVDVDYLSNLEFWGQGTAVTVSS
VL: DFVLTQSPHSLSVTPGESASISCKSSHSLIHGDRNNYLAWYVQKPGRSPQLLIYLASSRASGVPDRFSGSGSDKDFTLKISRVETEDVGTYYCMQGRESPWTFGQGTKVDIK
- IC80 (µg/ml) with constrains [1]: 7.43 µg/mL
- IC80 (µg/ml) with constrains [2]: > 100 µg/mL
- IC80 (µg/ml) with constrains [3]: 17.8 µg/mL
- IC80 (µg/ml) with constrains [4]: 62.8 µg/mL
- IC80 (µg/ml) with constrains (HIV Env, isolate TRO.11): 0.823 µg/mL
- IC80 (µg/ml) with constrains (HIV Env, isolate CNE20): 0.021 µg/mL
- IC80 (µg/ml) with constrains (HIV Env, isolate CNE58): 0.01 µg/mL
- IC80 (µg/ml) with constrains [5]: 0.012 µg/mL
- IC80 (µg/ml) with constrains [6]: 0.054 µg/mL
- IC80 (µg/ml) with constrains [7]: > 100 µg/mL
- IC80 (µg/ml) with constrains [8]: > 100 µg/mL
- IC80 (µg/ml) with constrains [9]: 0.101 µg/mL
- IC80 (µg/ml) with constrains [10]: 7.03 µg/mL
- IC80 (µg/ml) with constrains [11]: 0.013 µg/mL
- IC80 (µg/ml) with constrains [12]: 0.115 µg/mL
- IC80 (µg/ml) with constrains [13]: > 100 µg/mL
